Results reported in patent publication US20170355766A1 (Xencor, published 2017).
Positions count from the first letter of the chain named. Numbers in names are those of the source.

T1: human FcγRIIb receptor protein (R&D Systems) (human, UniProt P31994 46-217)
T1 construct: Analyte injected over antibodies captured on a protein A/G chip (Biacore); also called CD32b
T1 sequence (looked up): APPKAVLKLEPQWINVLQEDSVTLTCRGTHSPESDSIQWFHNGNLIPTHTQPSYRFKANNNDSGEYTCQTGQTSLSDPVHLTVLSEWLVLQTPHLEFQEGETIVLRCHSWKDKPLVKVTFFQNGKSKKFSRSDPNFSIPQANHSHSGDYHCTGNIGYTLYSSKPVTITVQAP

B1: H268D/A327D/L328Y (antibody, human IgG1, kappa)
heavy: EVQLVESGGGLVKPGGSLKLSCAASGYTFTSYVMHWVRQAPGKGLEWIGYINPYNDGTKYNEKFQGRVTISSDKSISTAYMELSSLRSEDTAMYYCARGTYYYGTRVFDYWGQGTLVTVSSASTKGPSVFPLAPSSKSTSGGTAALGCLVKDYFPEPVTVSWNSGALTSGVHTFPAVLQSSGLYSLSSVVTVPSSSLGTQTYICNVNHKPSNTKVDKKVEPKSCDKTHTCPPCPAPELLGGPSVFLFPPKPKDTLMISRTPEVTCVVVDVSDEDPEVKFNWYVDGVEVHNAKTKPREEQYNSTYRVVSVLTVLHQDWLNGKEYKCKVSNKDYPAPIEKTISKAKGQPREPQVYTLPPSREEMTKNQVSLTCLVKGFYPSDIAVEWESNGQPENNYKTTPPVLDSDGSFFLYSKLTVDKSRWQQGNVFSCSVMHEALHNHYTQKSLSLSPGK
light: DIVMTQSPATLSLSPGERATLSCRSSKSLQNVNGNTYLYWFQQKPGQSPQLLIYRMSNLNSGVPDRFSGSGSGTEFTLTISSLEPEDFAVYYCMQHLEYPITFGAGTKLEIKRTVAAPSVFIFPPSDEQLKSGTASVVCLLNNFYPREAKVQWKVDNALQSGNSQESVTEQDSKDSTYSLSSTLTLSKADYEKHKVYACEVTHQGLSSPVTKSFNRGEC
notes: HuAM4G7 IgG1 Fc variant
B2: H268E/L328Y/I332E (antibody, human IgG1, kappa)
heavy: B1 heavy with D272E, D331A, I336E
light: B1 light
notes: HuAM4G7 IgG1 Fc variant
B3: H268D/L328Y (antibody, human IgG1, kappa)
heavy: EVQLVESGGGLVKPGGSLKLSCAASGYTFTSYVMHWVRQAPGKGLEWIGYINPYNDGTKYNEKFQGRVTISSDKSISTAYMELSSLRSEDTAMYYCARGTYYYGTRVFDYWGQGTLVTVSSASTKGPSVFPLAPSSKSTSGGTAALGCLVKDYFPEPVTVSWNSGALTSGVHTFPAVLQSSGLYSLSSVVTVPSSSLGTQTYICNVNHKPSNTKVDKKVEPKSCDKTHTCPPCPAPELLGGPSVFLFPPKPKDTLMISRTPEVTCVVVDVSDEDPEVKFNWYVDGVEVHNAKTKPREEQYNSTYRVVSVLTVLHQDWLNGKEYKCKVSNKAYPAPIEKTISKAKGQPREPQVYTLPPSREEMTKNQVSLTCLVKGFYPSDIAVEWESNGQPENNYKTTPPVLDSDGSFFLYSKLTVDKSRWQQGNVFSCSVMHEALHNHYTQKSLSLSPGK
light: B1 light
notes: HuAM4G7 IgG1 Fc variant
B4: K326D/L328Y/I332E (antibody, human IgG1, kappa)
heavy: B1 heavy with D272H, K330D, D331A, I336E
light: B1 light
notes: HuAM4G7 IgG1 Fc variant
B5: H268D/K326D/L328Y (antibody, human IgG1, kappa)
heavy: B1 heavy with K330D, D331A
light: B1 light
notes: HuAM4G7 IgG1 Fc variant
B6: H268D/L328F/I332E (antibody, human IgG1, kappa)
heavy: B1 heavy with D331A, Y332F, I336E
light: B1 light
notes: HuAM4G7 IgG1 Fc variant
B7: K326A (antibody, human IgG1, kappa)
heavy: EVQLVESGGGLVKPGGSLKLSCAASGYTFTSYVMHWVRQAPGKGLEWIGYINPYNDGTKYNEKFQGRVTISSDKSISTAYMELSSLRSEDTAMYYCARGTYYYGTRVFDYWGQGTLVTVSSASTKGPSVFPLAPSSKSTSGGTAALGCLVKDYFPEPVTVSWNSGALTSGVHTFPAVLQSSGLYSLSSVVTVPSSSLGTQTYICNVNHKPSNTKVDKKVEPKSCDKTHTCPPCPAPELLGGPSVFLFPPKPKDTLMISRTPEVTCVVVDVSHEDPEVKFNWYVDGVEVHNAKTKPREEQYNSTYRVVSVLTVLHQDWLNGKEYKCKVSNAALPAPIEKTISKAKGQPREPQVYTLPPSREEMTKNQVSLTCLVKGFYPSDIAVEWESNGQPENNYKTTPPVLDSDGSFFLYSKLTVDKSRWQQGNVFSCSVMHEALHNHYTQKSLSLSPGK
light: B1 light
notes: HuAM4G7 IgG1 Fc variant
B8: H268D/L328Y/I332E (antibody, human IgG1, kappa)
heavy: B1 heavy with D331A, I336E
light: B1 light
notes: HuAM4G7 IgG1 Fc variant
B9: H268D/L328W/I332E (antibody, human IgG1, kappa)
heavy: B1 heavy with D331A, Y332W, I336E
light: B1 light
notes: HuAM4G7 IgG1 Fc variant

molecular target: T1, human FcγRIIb receptor protein (R&D …); test: SPR (Biacore)
Protocol: Variants were screened for receptor affinity using Biacore™ technology, also referred to as Biacore herein, a surface plasmon resonance (SPR) based technology for studying biomolecular interactions in real time. SPR measurements were performed using a Biacore 3000 instrument (Biacore, Piscataway, N.J.). A protein A/G (Pierce Biotechnology) CM5 biosensor chip (Biacore) was generated using a standard primary amine coupling protocol. All measurements were performed using HBS-EP buffer (10 mM HEPES pH 7.4, 0.15 M NaCl, 3 mM EDTA, 0.005% vol/vol surfactant P20, Biacore). Antibodies at 20 nM or 50 nM in HBS-EP buffer were immobilized on the protein A/G surface and FcγRs were injected. After each cycle, the surface was regenerated by injecting glycine buffer (10 mM, pH 1.5). Data were processed by zeroing time and response before the injection of FcγR and by subtracting appropriate nonspecific signals (response of reference channel and injection of running buffer). Kinetic analyses were performed by global fitting of binding data with a 1:1 Langmuir binding model using BIAevaluation software (Biacore).

Fold FcγRIIb | binding result | Binder
3.49 fold |  | B1
8.53 fold |  | B2
1.91 fold |  | B3
2.65 fold |  | B4
18.6 fold |  | B5
12.3 fold |  | B6
 | no binding | B7
4.89 fold |  | B8
39.8 fold |  | B9
